Assay results published in patent publication US20090136516A1 (DUKE UNIVERSITY, published 2009).

Columns and labels:
human CD20 [1] = target: T1, human CD20 (human, UniProt P11836 1-297); experiment: indirect immunofluorescence, flow cytometry, BJAB cells, saturating mAb
T1 construct: whole, on cells; also called cell surface CD20
T1 sequence (looked up): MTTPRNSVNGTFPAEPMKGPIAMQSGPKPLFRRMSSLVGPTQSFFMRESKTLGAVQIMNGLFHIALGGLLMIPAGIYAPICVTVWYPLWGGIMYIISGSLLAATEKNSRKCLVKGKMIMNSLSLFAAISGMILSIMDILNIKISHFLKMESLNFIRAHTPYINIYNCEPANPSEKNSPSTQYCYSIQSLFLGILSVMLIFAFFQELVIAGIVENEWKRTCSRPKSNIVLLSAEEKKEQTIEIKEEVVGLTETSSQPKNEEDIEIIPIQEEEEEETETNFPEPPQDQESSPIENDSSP
Description: (§1) Reactivity of human blood lymphocytes and the Raji, BJAB or DHL-4 B lymphoblastoid cell lines with anti-CD20 monoclonal antibodies at saturating concentrations or with secondary antibody alone (control). The anti-CD20 monoclonal antibodies were used at concentrations that were determined to be saturating and that gave optimal staining. 1F5, B9E9 and 1H4 (IgG2a) monoclonal antibodies were used as ascites fluid diluted 1:200. HB20-3, -4 and -25 monoclonal antibodies were used as tissue culture supernatant fluid. B1 monoclonal antibody was used at either 10 μg/mL of purified monoclonal antibody or as tissue culture supernatant fluid. In all cases, monoclonal antibody staining was visualized using PE-conjugated isotype-specific secondary antibodies with flow cytometry analysis. Values represent the mean linear fluorescence intensity of staining for each B cell population as determined by flow cytometry analysis. Results are representative of those obtained in ≧3 experiments.

human CD20 [2] = target: T1, human CD20; experiment: indirect immunofluorescence, flow cytometry, DHL-4 cells, saturating mAb
Description: as §1

human CD20 [3] = target: T1, human CD20; experiment: indirect immunofluorescence, flow cytometry, Raji cells, saturating mAb
Description: as §1

human CD20 [4] = target: T1, human CD20; experiment: indirect immunofluorescence, flow cytometry, human blood B cells, saturating mAb
Description: as §1

mouse CD20 = target: T2, mouse CD20 (mouse, UniProt P19437 1-291); experiment: flow cytometry, mouse spleen CD19+ B cells, mAb at 0.5 µg/mL, isotype-specific secondary antibody
T2 construct: whole, on cells; Endogenous mouse CD20 on primary B cells; also called cell-surface CD20
T2 sequence (looked up): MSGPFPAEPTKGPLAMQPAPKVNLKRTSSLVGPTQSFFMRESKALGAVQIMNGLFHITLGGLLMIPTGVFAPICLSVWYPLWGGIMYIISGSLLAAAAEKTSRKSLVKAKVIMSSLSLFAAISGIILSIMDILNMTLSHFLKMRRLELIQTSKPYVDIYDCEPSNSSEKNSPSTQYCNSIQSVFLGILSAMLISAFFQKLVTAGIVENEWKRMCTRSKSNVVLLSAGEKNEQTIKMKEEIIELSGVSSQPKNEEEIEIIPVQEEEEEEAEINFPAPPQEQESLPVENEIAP
Description: Twelve mouse anti-mouse CD20 monoclonal antibodies, with representatives of each IgG isotype, were assessed for their ability to bind B cells and deplete them in vivo. Each monoclonal antibody reacted uniformly with CD19⁺ primary B cells in vitro with characteristic mean fluorescence intensities that were independent of monoclonal antibody isotype (FIG. 6A). When monoclonal antibody reactivity with primary B cells was assessed over a range of monoclonal antibody concentrations, most monoclonal antibodies reached saturating levels of staining when used at concentrations between 1-10 μg/mL (FIG. 6B). […] When all monoclonal antibodies were used at 0.5 μg/mL, each monoclonal antibody reacted uniformly with CD19⁺ primary B cells with characteristic low to high mean fluorescence intensities (FIG. 6C, Table 5). Similar results were obtained using a mouse CD20 cDNA-transfected pre-B cell line with anti-mouse Ig secondary antibody. Based on this analysis, the MB20-1 monoclonal antibody represented monoclonal antibodies with the lowest relative affinity/avidity, while the MB20-18 monoclonal antibody reacted strongly with B cells and stained B cells at the highest levels of all 12 anti-CD20 monoclonal antibodies (Table 5).

Row | Molecule | mean linear fluorescence intensity (human CD20 [1]) | mean linear fluorescence intensity (human CD20 [2]) | mean linear fluorescence intensity (human CD20 [3]) | mean linear fluorescence intensity (human CD20 [4]) | B cell reactivity (mean linear fluorescence intensity) (mouse CD20) | further results
1 | B1 anti-CD20 monoclonal antibody |  |  |  |  |  | mean linear fluorescence intensity (mean linear fluorescence intensity) (human CD20 [1]): 700; mean linear fluorescence intensity (mean linear fluorescence intensity) (human CD20 [2]): 486; mean linear fluorescence intensity (mean linear fluorescence intensity) (human CD20 [3]): 944; mean linear fluorescence intensity (mean linear fluorescence intensity) (human CD20 [4]): 277
2 | 1F5 anti-CD20 monoclonal antibody (antibody, V domains shown) VH: QVQLRQPGAELVKPGASVKMSCKASGYTFTSYNMHWVKQTPGQGLEWIGAIYPGNGDTSYNQKFKGKATLTADKSSSTAYMQLSSLTSEDSAVYYCARSHYGSNYVDYFDYWGQGTTLTVSS VL: DIVLSQSPAILSASPGEKVTMTCRASSSLSFMHWYQQKPGSSPKPWIYATSNLASGVPARFSGSGSGTSYSLTISRVEAEDAATYFCHQWSSNPLTFGAGTKLELK | 386 mean linear fluorescence intensity | 169 mean linear fluorescence intensity | 455 mean linear fluorescence intensity | 104 mean linear fluorescence intensity |  | 
3 | B9E9 anti-CD20 monoclonal antibody (antibody, V domains shown) VH: QVQLVQSGAELVKPGASVKMSCKASGYTFTSYNMHWVKQTPGQGLEWIGAIYPGNGDTSYNQKFKGKATLTADKSSSTAYMQLSSLTSEDSAVYYCARAQLRPNYWYFDVWGAGTTVTVSS VL: DIVLSQSPAILSASPGEKVTMTCRASSSVSYMHWYQQKPGSSPKPWIYATSNLASGVPARFSGSGSGTSYSLTISRVEAEDAATYYCQQWISNPPTFGAGTKLELK | 377 mean linear fluorescence intensity | 162 mean linear fluorescence intensity | 438 mean linear fluorescence intensity | 112 mean linear fluorescence intensity |  | 
4 | HB20-3 monoclonal antibody (antibody, V domains shown, Used as tissue culture supernatant; also called HB20-03; HB13c) VH: EVQLQESGAELVKPGASVKMSCKASGFTFTNYNMHWLKQTPGQGLEWIGAIYPENGDTSYNQKFKGKATLTADKASSTAYMHLSSLTSEDSAVYFCARFYYYGSYYGAMDYWGQGTSVTVSS VL: DIQMTQSPASLSASVGETVTITCRASGNIHNYLAWYQQKQGKSPQLLVYNAKTLADGVPSRFSGSGSGTQFSLKINSLQPEDFGSYYCQHFWSTPWTFGGGTKLEIKR | 1200 mean linear fluorescence intensity | 765 mean linear fluorescence intensity | 2220 mean linear fluorescence intensity | 469 mean linear fluorescence intensity |  | 
5 | HB20-4 monoclonal antibody (antibody, V domains shown, Used as tissue culture supernatant; also called HB20-04; HB13d) VH: EVQLQESGAELVKPGASVKMSCKASGFTFTNYNMHWVKQTPGQGLEWIGAIYPENGDTSYNQRFKGKATLTADKSSSTAYMHLSSLTSEDTAVYFCARFYYYGSYYGALDYWGQGTSVTVSS VL: DIQMTQSPASLSASVGETVTITCRASGSIHNYLAWYQQKLGKSPQLLVYNAKTLADGVPSRFSGSGSGTQFSLKINSLQPEDFGSYYCQHFWSIPWTFGGGTKLEIKR | 1100 mean linear fluorescence intensity | 578 mean linear fluorescence intensity | 1580 mean linear fluorescence intensity | 397 mean linear fluorescence intensity |  | 
6 | MB20-18 monoclonal antibody (antibody, V domains shown, Mouse anti-mouse CD20 hybridoma antibody, IgG2b) VH: EVQLQESGLDLVKPGASVKISCKASGYTFTDYYMKWVKQSHGKSLDWIGDINPNNGDIIYNQKFEGKATLTVDKSSSTAYMELRSLTSEDSAVYYCARERFAYWGQGTLVTVSA VL: SIVMTQTPKFLLVSTGDRVTITCKASQTVTNDLAWYQQKPGQSPKLLIYYASNRYTGVPDRFTGSGYGTDFTFTINTVQAEDLAVYFCQQDYSSPLTFGAGTKLELKR |  |  |  |  | 729 mean linear fluorescence intensity | 
7 | MB20-14 monoclonal antibody (antibody, V domains shown, Mouse anti-mouse CD20 hybridoma antibody, IgG1) VH: EVQLQESGPELVKPGASVKISCKASGYMFTDYYIKWVKQSHGKSLEWIGDINPNNGDTIYNQKFKGKATLTVDKSSNTAYMDLRILTSEDSAVYYCARERFAYWGQGTLVTVSA VL: EIVLTQSPTTMAASPGEKITITCSVSSSIRSNYLHWYQQKPGFSPKLLIYRTSNLASGVPARFSGSGSGTSYSLTVATMEAEDVATYYCQQGSSIPLTFGAGTKLELKR |  |  |  |  | 166 mean linear fluorescence intensity | 
8 | MB20-8 monoclonal antibody (antibody, V domains shown, Mouse anti-mouse CD20 hybridoma antibody, IgG2b; also called MB20-08) VH: EVQLQESGPDLVKPGASVKISCKASGYTFTDYYMKWVKQSHGKSLDWIGDINPNNGDIIYNQKFEGKATLTVDKSSSTAYMELRSLTSEDSAVYYCARERFAYWGQGTLVTVSA VL: EIVLTQSPTTMAASPGEKITITCSVSSNIRSNYLHWYQQKPGFSPKLLIYRTSNLASGVPARFSGSGSGTSYSLTIGTMKAEDVATYYCQQGSSIPLTFGAGTKLELKR |  |  |  |  | 240 mean linear fluorescence intensity | 
9 | MB20-10 monoclonal antibody (antibody, V domains shown, Mouse anti-mouse CD20 hybridoma antibody, IgG2b) VH: EVQLQESGPDLVKPGASVKISCKASGYTFTDYYMKWVKQSHGKSLDWIGDINPNNGDIIYNQKFEGKATLTVDKSSSTAYMELRSLTSEDSAVYYCARERFAYWGQGTLVTVSA VL: EIVLTQSPTTMAASPGEKITITCSVSSNIRSNYLHWYQQKPGFSPKLLIYRTSNLASGVPARFSGSGSGTSYSLTIGTMKAEDVATYYCQQGSSIPLTFGAGTKLELKR |  |  |  |  | 317 mean linear fluorescence intensity | 
10 | MB20-7 monoclonal antibody (antibody, V domains shown, Mouse anti-mouse CD20 hybridoma antibody, IgG2b; also called MB20-07) VH: EVQLQESGPDLVKPGASVKISCKASGYMFTDYYMKWVKQSHGKSLEWIGDINPNNGDTTYNQKFEGKATLTVDKSSSTAYMELRSLTSEDSAVYYCARERFAYWGQGTLVTVSA VL: ELVLTQSPTTKAASPGEKITITCSVSSSIRSNYLHWYQQRPGFSPKLLIYRTSNLASGVPARFSGSGSGTSYSLTIGTMEAEDVATYYCQQGSSLPLTFGAGTKLELKR |  |  |  |  | 525 mean linear fluorescence intensity | 
11 | MB20-2 monoclonal antibody (antibody, V domains shown, Mouse anti-mouse CD20 hybridoma antibody, IgG1; also called MB20-02) VH: EVQLQESGPELVKPGASVKISCKASGYMFTDYYIKWVKQSHGKSLEWIGDINPNNGDTIYNQKFKGKATLTVDKSSNTAYMDLRSLTSEDSAVYYCARERFAYWGQGTLVTVSA VL: EIVLTQSPTTMAASPGEKITITCSVSSSIRSNYLHWYQQKPGFSPKLLIYRTSNLASGVPARFSGSGSGTSYSLTVATMEAEDVATYYCQQGSSIPLTFGAGTKLELKR |  |  |  |  | 209 mean linear fluorescence intensity | 
12 | HB20-25 monoclonal antibody (antibody, V domains shown, Used as tissue culture supernatant) VH: EVQLQESGAELVKPGASVKMSCKASGFRFTNYNLHWVKQTPGQGLEWIGAIYPGNGETSYNQKFKGKATLTADKSSSTAYMQLRSLTSGDSAVYYCARFYYYGSSYGAMDYWGQGTSVTVSS VL: DIQMTQSPASLSVSVGETVTITCRASENIYSNLAWYQQKQGKSPQLLVYAATNLADGVPSRFSGSGSGTQYSLKINSLQSEDFGSYYCQHFWGIPWTFGGGTKLEIKR | 849 mean linear fluorescence intensity | 514 mean linear fluorescence intensity | 1350 mean linear fluorescence intensity | 227 mean linear fluorescence intensity |  | 
13 | MB20-1 monoclonal antibody (antibody, V domains shown, Mouse anti-mouse CD20 hybridoma antibody, IgG1; also called MB20-01) VH: EVQLQESGGGLVQPGGSLKLSCAASGFTFSDYGMAWVRQAPRKGPEWVAFISNLAYSIYYADTVTGRFTISRENAKNTLYLEMSSLRSEDTAMYFCTRTGYYALDYWGQGTSVTVSS VL: NIMMTQSPSSLAVSAGEKVTMRCKSSQSVLYSSKRKNYLAWYQQKPGKSPTLLIYWASTRESGVPDRFTGSGSGTDFTLTITSVQAEDLAVYYCHQYLSSFTFGGGTKLEIKR |  |  |  |  | 69 mean linear fluorescence intensity | 
14 | MB20-13 monoclonal antibody (antibody, V domains shown, Mouse anti-mouse CD20 hybridoma antibody, IgG3) VH: EVQLQESGGGLVQPGGSLKLSCAASGFTFSDYGMAWVRQAPRKGPEWVAFISNLAYSIYYADTVTGRFTISRENAKNTLYLEMSSLRSEDTAMYFCTRTGYYALDYWGQGTSVTVSS VL: EIVLAQSPTTTAASPGEKITITCSASSSITSNYLHWYQQKPGFSPKLLIYRTSNLASGVPARFSGSGSGTSYSLTIGTMEAEDVATYYCQQGSSKTLTFGAGTKLELKR |  |  |  |  | 603 mean linear fluorescence intensity | 
